# Results as given in patent US20190309059A1 (SHANGHAI PHARMAEXPLORER, published 2019).
# Where “and” joins values, the source holds several entries; their conditions need not be identical. Equal values may be shown once.
# T1: mouse IL-13 (purchased from sino biological) (mouse, UniProt P20109 19-131)
# T1 chain: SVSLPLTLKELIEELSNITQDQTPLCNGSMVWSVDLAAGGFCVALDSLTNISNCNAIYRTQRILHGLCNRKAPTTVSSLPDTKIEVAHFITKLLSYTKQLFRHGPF
# Key:
# [1] = biological target: his-labeled human IL-13 (immunogen A) (human) (UniProt P35225); assay: ELISA, biotin-immunogen A; antibody at 0.000 nM
# [2] = biological target: cynomolgus IL-13 (purchased from sino biological) (cynomolgus) (UniProt Q0PW92); assay: ELISA, cynomolgus IL-13; antibody at 66.7 nM
# Chain of cynomolgus IL-13 (purchased from sino biological) (cynomolgus) (Q0PW92 entry or part of it): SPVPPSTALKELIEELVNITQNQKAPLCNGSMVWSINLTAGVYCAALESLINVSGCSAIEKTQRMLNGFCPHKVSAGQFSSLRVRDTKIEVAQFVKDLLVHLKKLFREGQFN
# [3] = biological target: his-labeled human IL-13R130Q variant (human) (UniProt P35225); assay: ELISA, IL-13R130Q variant; antibody at 0.53 nM
# Chain of his-labeled human IL-13R130Q variant (human) (P35225 other isoform, or with tags, fused parts or gaps mutant): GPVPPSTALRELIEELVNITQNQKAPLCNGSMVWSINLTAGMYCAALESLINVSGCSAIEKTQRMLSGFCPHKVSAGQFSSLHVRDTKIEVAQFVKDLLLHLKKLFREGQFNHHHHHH
# [4] = biological target: cynomolgus IL-13 (purchased from sino biological) (cynomolgus) (UniProt Q0PW92); assay: ELISA, cynomolgus IL-13; antibody at 13.3 nM
# [5] = biological target: his-labeled human IL-13 (immunogen A) (human) (UniProt P35225); assay: ELISA, biotin-immunogen A; antibody at 0.00 nM (6th dilution)
# [6] = biological target: his-labeled human IL-13R130Q variant (human) (UniProt P35225); assay: ELISA, IL-13R130Q variant; antibody at 13.33 nM
# [7] = biological target: his-labeled human IL-13 (immunogen A) (human) (UniProt P35225); assay: ELISA, biotin-immunogen A; antibody at 0.53 nM
# [8] = biological target: his-labeled human IL-13 (immunogen A) (human) (UniProt P35225); assay: ELISA, biotin-immunogen A; antibody at 2.67 nM
# [9] = biological target: his-labeled human IL-13R130Q variant (human) (UniProt P35225); assay: ELISA, IL-13R130Q variant; antibody at 0.021 nM
# [10] = biological target: cynomolgus IL-13 (purchased from sino biological) (cynomolgus) (UniProt Q0PW92); assay: ELISA, cynomolgus IL-13; antibody at 0.107 nM
# [11] = biological target: cynomolgus IL-13 (purchased from sino biological) (cynomolgus) (UniProt Q0PW92); assay: ELISA, cynomolgus IL-13; antibody at 13.33 nM
# [12] = biological target: his-labeled human IL-13 (immunogen A) (human) (UniProt P35225); assay: ELISA, biotin-immunogen A; antibody at 0.00 nM (as printed, 7th dilution)
# [13] = biological target: his-labeled human IL-13 (immunogen A) (human) (UniProt P35225); assay: ELISA, biotin-immunogen A; antibody at 0.00 nM (8th dilution)
# [14] = biological target: T1, mouse IL-13 (purchased from sino …); assay: ELISA, mouse IL-13; antibody at 0.001 nM
# [15] = biological target: T1, mouse IL-13 (purchased from sino …); assay: ELISA, mouse IL-13; antibody at 0.004 nM
# [16] = biological target: his-labeled human IL-13 (immunogen A) (human) (UniProt P35225); assay: ELISA, biotin-immunogen A; antibody at 13.33 nM
# [17] = biological target: his-labeled human IL-13 (immunogen A) (human) (UniProt P35225); assay: FACS blocking assay: antibody titrated with biotin-labeled immunogen A (20 ng/mL); blocked partner IL-13Ra2 on HEK293 clone 1A1; Alexa 488 streptavidin
# [18] = biological target: T1, mouse IL-13 (purchased from sino …); assay: ELISA, mouse IL-13; antibody at 0.000 nM
# [19] = biological target: cynomolgus IL-13 (purchased from sino biological) (cynomolgus) (UniProt Q0PW92); assay: ELISA, cynomolgus IL-13; antibody at 66.67 nM
# [20] = biological target: T1, mouse IL-13 (purchased from sino …); assay: ELISA, mouse IL-13; antibody at 2.67 nM
# [21] = biological target: cynomolgus IL-13 (purchased from sino biological) (cynomolgus) (UniProt Q0PW92); assay: ELISA: cynomolgus IL-13 on the plate, antibody titrated, HRP secondary antibody, OD450
# [22] = biological target: T1, mouse IL-13 (purchased from sino …); assay: ELISA, mouse IL-13; antibody at 0.11 nM
# [23] = biological target: his-labeled human IL-13 (immunogen A) (human) (UniProt P35225); assay: ELISA, biotin-immunogen A; antibody at 0.004 nM
# [24] = biological target: his-labeled human IL-13 (immunogen A) (human) (UniProt P35225); assay: ELISA: biotin-labeled immunogen A on streptavidin plate, antibody titrated, HRP secondary antibody, OD450
# [25] = biological target: his-labeled human IL-13 (immunogen A) (human) (UniProt P35225); assay: ELISA, biotin-immunogen A; antibody at 0.021 nM
# [26] = biological target: T1, mouse IL-13 (purchased from sino …); assay: ELISA, mouse IL-13; antibody at 0.021 nM
# [27] = biological target: his-labeled human IL-13 (immunogen A) (human) (UniProt P35225); assay: FACS blocking assay: antibody titrated with biotin-labeled immunogen A (30 ng/mL); blocked partner IL-13Ra1/IL-4Ra on HEK293 clone 4C1; Alexa 488 streptavidin
# [28] = biological target: cynomolgus IL-13 (purchased from sino biological) (cynomolgus) (UniProt Q0PW92); assay: ELISA, cynomolgus IL-13; antibody at 333.3 nM
# [29] = biological target: his-labeled human IL-13 (immunogen A) (human) (UniProt P35225); assay: SPR (Biacore), antibody captured by anti-human Fc, immunogen A as analyte
# [30] = biological target: his-labeled human IL-13R130Q variant (human) (UniProt P35225); assay: ELISA, IL-13R130Q variant; antibody at 66.67 nM
# [31] = biological target: his-labeled human IL-13R130Q variant (human) (UniProt P35225); assay: ELISA: IL-13R130Q variant on the plate, antibody titrated, HRP secondary antibody, OD450
Molecule,OD450 nm [1],OD450 nm [2],OD450 nm [3],OD450 nm [4],OD450 nm [5],OD450 nm [6],OD450 nm [7],OD450 nm [8],OD450 nm [9],OD450 nm [10],OD450 nm [11],OD450 nm [12],OD450 nm [13],OD450 nm [16],IC50 (read off the curve) [17],EC50 (read off the curve) [24],IC50 (read off the curve) [27],Kd [29],koff [29],kon [29],also measured
IgG control (mouse IgG) (antibody),0.05,0.1,0.06,0.1,0.08,0.09,0.07 and 0.06,0.08,0.06,0.059,0.21,0.07,0.07,–,–,–,–,–,–,–,–
"29D9H8 (lead antibody, mouse hybridoma) (antibody, V domains shown, Mouse monoclonal antibody purified from hybridoma supernatant on Protein G) VH: QVQLQQSGAELVRPGASVTLSCKASGYTFTDYEMHWVKQTPVHGLEWIGGIDPETGGTASNQKFKGKAILTADKSSSTAYMELRSLTSEDSAVYYCTSGDYFGGGPFAYWGQGTLVTVSA VL: DIKMTQSPSSMYASLGERVTITCKASQDINSYLSWFQQKPGKSPKTLIYRANRLVDGVPSRFSGSGSGQDYSLTISSLDYEDMGIYYCLQYDEFPYTFGGGTKLEIK",0.06,–,–,–,–,–,1.4,1.61,–,–,2.46,–,–,1.6,0.2 nM,0.1 nM,0.3 nM,–,–,–,OD450 nm [14]: 0.07; OD450 nm [15]: 0.07; OD450 nm [18]: 0.07; OD450 nm [19]: 2.52; OD450 nm [20]: 0.07; EC50 (read off the curve) [21]: 0.1 nM; OD450 nm [22]: 0.07; OD450 nm [23]: 0.12; OD450 nm [25]: 0.34; OD450 nm [26]: 0.06
"c29D9H8 (mouse-human chimeric IL-13 antibody) (antibody, V domains shown) VH: QVQLQQSGAELVRPGASVTLSCKASGYTFTDYEMHWVKQTPVHGLEWIGGIDPETGGTASNQKFKGKAILTADKSSSTAYMELRSLTSEDSAVYYCTSGDYFGGGPFAYWGQGTLVTVSA VL: DIKMTQSPSSMYASLGERVTITCKASQDINSYLSWFQQKPGKSPKTLIYRANRLVDGVPSRFSGSGSGQDYSLTISSLDYEDMGIYYCLQYDEFPYTFGGGTKLEIK",–,3.6,2.46,3.5,–,2.99,–,–,0.4,1.23,–,–,–,–,0.2 nM,–,0.5 nM,0.0324 nM,0.000813 s⁻¹,2.51e+07 M⁻¹ s⁻¹,OD450 nm [28]: 3.7; OD450 nm [30]: 3.06; EC50 (read off the curve) [31]: 0.2 nM; EC50 (read off the curve) [21]: 0.2 nM
"28A2E11 (lead antibody, mouse hybridoma) (antibody, V domains shown, Mouse monoclonal antibody purified from hybridoma supernatant on Protein G) VH: EVQLQQSGAELVKPGASVKLSCTASGFNIKDYYMHWVKQRTEQGLEWIGRIDPEDGETKYAPKFHDKATLTADTSSNTAYLQFSSLASEDTAVYYCTRYDYYGPFAYWGQGTLVTVSA VL: QAVVTQESVLTTSPGETVTLTCRSSTGAVTTSNYANWVQEKPDHLFTGLIGGTNNRAPGVPARFSGSLIGDKAALTITGAQTEDEAIYFCALWYINHFIFGSGTKVTVL",0.05,–,–,–,–,–,1.32,1.69,–,–,1.78,–,–,1.74,0.6 nM,0.2 nM,0.7 nM,–,–,–,OD450 nm [14]: 0.06; OD450 nm [15]: 0.07; OD450 nm [18]: 0.07; OD450 nm [19]: 1.99; OD450 nm [20]: 0.08; OD450 nm [22]: 0.07; OD450 nm [23]: 0.1; OD450 nm [25]: 0.28; OD450 nm [26]: 0.08
"c28A2E11 (mouse-human chimeric IL-13 antibody) (antibody, V domains shown) VH: EVQLQQSGAELVKPGASVKLSCTASGFNIKDYYMHWVKQRTEQGLEWIGRIDPEDGETKYAPKFHDKATLTADTSSNTAYLQFSSLASEDTAVYYCTRYDYYGPFAYWGQGTLVTVSA VL: QAVVTQESVLTTSPGETVTLTCRSSTGAVTTSNYANWVQEKPDHLFTGLIGGTNNRAPGVPARFSGSLIGDKAALTITGAQTEDEAIYFCALWYINHFIFGSGTKVTVL",–,3.4,–,2.4,0.1,–,1.93,2.6,–,0.183,–,0.07,0.06,2.71,1 nM,0.2 nM,1 nM,7.98 nM,0.00438 s⁻¹,549000 M⁻¹ s⁻¹,OD450 nm [28]: 3.9; EC50 (read off the curve) [31]: 0.3 nM
"c35E2C3 (mouse-human chimeric IL-13 antibody) (antibody, V domains shown) VH: EVQLQESGPGLAKPSQTLSLTCSVTGYSITSDYWNWIRKFPGNKLEYMGYISYNGNTYYNPSLKSQISITRDTSKNQLYLQLKSATTEDTATYYCARLAKWTWYFDIWGTGTTVTVSS VL: DIQMNQSPSSLSASLGDTITITCHASQNINVWLSWYQQKPGSLPKLLIYKASDLHTGVPSRFSGSGSGTGFTLTISSLQPEDIATYYCQQGQSYPYTFGGGTKLEIK",–,3.8,2.4,3.1,0.09,3.3,1.63,2.4,0.28,0.181,–,0.07,0.06,2.59,0.3 nM,0.4 nM,0.5 nM,0.863 nM,0.00026 s⁻¹,300000 M⁻¹ s⁻¹,OD450 nm [30]: 3.4; EC50 (read off the curve) [31]: 0.3 nM
